From IntAct's records for PubMed 22068056

B1: SWI/SNF-related matrix-associated actin-dependent regulator of chromatin subfamily D member 3 (Mus musculus), Q6P9Z1 (parent)
chain: MAADEVAGGARKATKSKLFEFLVHGVRPGMPSGARMPHQGAPMGPPGSPYMGSPAVRPGLAPAGMEPARKRAAPPPGQSQAQGQGQPVPTAPARSRSAKRRKMADKILPQRIRELVPESQAYMDLLAFERKLDQTIMRKRVDIQEALKRPMKQKRKLRLYISNTFNPAKPDAEDSDGSIASWELRVEGKLLDDPSKQKRKFSSFFKSLVIELDKDLYGPDNHLVEWHRTPTTQETDGFQVKRPGDLSVRCTLLLMLDYQPPQFKLDPRLARLLGLHTQSRSAIVQALWQYVKTNRLQDSHDKEYINGDKYFQQIFDCPRLKFSEIPQRLTALLLPPDPIVINHVISVDPSDQKKTACYDIDVEVEEPLKGQMSSFLLSTANQQEISALDSKIHETIESINQLKIQRDFMLSFSRDPKGYVQDLLRSQSRDLKVMTDVAGNPEEERRAEFYHQPWSQEAVSRYFYCKIQQRRQELEQSLVVRNT

Variants of: B1
Details: with smca4_mouse Smarca4, Q3TKT4
smca4_mouse Smarca4, Q3TKT4, sequence (Q3TKT4 whole entry): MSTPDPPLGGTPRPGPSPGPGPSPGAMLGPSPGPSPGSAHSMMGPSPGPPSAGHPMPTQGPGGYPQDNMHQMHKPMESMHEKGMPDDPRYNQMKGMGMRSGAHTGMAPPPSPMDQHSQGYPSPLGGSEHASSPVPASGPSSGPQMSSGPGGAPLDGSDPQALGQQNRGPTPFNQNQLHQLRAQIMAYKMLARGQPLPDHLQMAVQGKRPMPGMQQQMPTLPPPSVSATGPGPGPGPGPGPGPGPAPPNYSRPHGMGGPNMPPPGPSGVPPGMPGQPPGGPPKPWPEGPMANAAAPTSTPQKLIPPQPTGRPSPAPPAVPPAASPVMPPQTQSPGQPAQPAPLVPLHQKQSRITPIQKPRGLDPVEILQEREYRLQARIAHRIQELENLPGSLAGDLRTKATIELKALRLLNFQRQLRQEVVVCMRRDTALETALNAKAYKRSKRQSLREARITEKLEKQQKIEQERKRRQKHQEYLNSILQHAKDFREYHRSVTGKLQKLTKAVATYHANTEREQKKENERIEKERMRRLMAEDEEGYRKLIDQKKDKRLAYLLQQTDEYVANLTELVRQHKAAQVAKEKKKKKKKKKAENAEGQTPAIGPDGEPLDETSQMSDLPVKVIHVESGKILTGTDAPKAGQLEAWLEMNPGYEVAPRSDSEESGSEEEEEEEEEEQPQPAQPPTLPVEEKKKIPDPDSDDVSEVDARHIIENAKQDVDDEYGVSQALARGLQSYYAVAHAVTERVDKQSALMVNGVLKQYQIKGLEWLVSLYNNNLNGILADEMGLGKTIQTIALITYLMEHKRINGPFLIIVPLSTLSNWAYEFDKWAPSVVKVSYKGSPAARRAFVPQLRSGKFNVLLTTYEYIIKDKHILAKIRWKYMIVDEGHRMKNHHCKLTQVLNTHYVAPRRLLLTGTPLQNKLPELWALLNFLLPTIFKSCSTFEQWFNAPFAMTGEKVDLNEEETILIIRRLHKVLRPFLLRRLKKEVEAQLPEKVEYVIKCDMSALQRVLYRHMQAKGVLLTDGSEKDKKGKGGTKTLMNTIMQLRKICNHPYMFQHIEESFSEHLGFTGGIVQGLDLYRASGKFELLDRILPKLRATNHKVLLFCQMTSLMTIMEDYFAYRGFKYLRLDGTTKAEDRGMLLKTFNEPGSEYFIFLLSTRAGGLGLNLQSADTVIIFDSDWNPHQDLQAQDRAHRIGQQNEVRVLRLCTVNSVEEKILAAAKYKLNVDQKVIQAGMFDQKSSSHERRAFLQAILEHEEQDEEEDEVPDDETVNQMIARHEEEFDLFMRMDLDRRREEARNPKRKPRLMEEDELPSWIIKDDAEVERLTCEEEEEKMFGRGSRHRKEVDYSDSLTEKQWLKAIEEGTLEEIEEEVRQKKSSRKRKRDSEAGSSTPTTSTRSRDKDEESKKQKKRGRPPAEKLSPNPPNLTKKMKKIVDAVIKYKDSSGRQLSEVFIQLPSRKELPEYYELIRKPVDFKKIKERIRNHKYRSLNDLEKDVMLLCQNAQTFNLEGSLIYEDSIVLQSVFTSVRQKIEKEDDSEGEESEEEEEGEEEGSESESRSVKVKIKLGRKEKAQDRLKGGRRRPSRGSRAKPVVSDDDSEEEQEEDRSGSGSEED

| Variant | effect of a mutation on the interaction |
| --- | --- |
| T229A | disrupting interaction |
